In IntAct's records for PubMed 31515488:

B1: THAP domain-containing protein 7 (Homo sapiens), Q9BT49 (parent)
chain: MPRHCSAAGCCTRDTRETRNRGISFHRLPKKDNPRRGLWLANCQRLDPSGQGLWDPASEYIYFCSKHFEEDCFELVGISGYHRLKEGAVPTIFESFSKLRRTTKTKGHSYPPGPAEVSRLRRCRKRCSEGRGPTTPFSPPPPADVTCFPVEEASAPATLPASPAGRLEPGLSSPFSDLLGPLGAQADEAGCSAQPSPERQPSPLEPRPVSPSAYMLRLPPPAGAYIQNEHSYQVGSALLWKRRAEAALDALDKAQRQLQACKRREQRLRLRLTKLQQERAREKRAQADARQTLKEHVQDFAMQLSSSMA
partner: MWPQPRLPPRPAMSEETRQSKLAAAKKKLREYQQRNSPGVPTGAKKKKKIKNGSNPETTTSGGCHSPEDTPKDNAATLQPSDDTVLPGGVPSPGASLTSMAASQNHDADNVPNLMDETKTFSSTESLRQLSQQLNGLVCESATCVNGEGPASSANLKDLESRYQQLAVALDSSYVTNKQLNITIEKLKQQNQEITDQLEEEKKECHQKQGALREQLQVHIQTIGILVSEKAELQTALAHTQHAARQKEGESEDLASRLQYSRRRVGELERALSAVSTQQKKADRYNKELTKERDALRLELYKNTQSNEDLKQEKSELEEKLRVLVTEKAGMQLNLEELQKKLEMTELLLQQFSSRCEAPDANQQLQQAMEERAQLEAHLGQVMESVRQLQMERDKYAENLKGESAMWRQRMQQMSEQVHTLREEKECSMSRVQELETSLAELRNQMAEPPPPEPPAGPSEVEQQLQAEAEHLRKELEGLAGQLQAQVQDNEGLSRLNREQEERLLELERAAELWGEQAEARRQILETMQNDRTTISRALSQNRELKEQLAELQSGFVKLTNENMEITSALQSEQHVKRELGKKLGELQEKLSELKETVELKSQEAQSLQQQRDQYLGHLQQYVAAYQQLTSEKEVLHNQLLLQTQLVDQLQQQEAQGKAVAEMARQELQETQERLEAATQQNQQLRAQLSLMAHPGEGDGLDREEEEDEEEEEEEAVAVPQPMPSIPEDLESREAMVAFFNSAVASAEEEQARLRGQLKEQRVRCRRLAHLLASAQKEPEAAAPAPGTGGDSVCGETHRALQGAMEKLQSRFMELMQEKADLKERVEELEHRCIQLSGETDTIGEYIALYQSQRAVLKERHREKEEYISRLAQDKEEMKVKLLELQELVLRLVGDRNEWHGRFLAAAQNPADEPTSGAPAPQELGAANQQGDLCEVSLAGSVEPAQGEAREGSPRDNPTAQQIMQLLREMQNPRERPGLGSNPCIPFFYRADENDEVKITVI
B2: Angiomotin (Homo sapiens), Q4VCS5 (parent)
chain: MRNSEEQPSGGTTVLQRLLQEQLRYGNPSENRSLLAIHQQATGNGPPFPSGSGNPGPQSDVLSPQDHHQQLVAHAARQEPQGQEIQSENLIMEKQLSPRMQNNEELPTYEEAKVQSQYFRGQQHASVGAAFYVTGVTNQKMRTEGRPSVQRLNPGKMHQDEGLRDLKQGHVRSLSERLMQMSLATSGVKAHPPVTSAPLSPPQPNDLYKNPTSSSEFYKAQGPLPNQHSLKGMEHRGPPPEYPFKGMPPQSVVCKPQEPGHFYSEHRLNQPGRTEGQLMRYQHPPEYGAARPAQDISLPLSARNSQPHSPTSSLTSGGSLPLLQSPPSTRLSPARHPLVPNQGDHSAHLPRPQQHFLPNQAHQGDHYRLSQPGLSQQQQQQQQQHHHHHHHQQQQQQQPQQQPGEAYSAMPRAQPSSASYQPVPADPFAIVSRAQQMVEILSDENRNLRQELEGCYEKVARLQKVETEIQRVSEAYENLVKSSSKREALEKAMRNKLEGEIRRMHDFNRDLRERLETANKQLAEKEYEGSEDTRKTISQLFAKNKESQREKEKLEAELATARSTNEDQRRHIEIRDQALSNAQAKVVKLEEELKKKQVYVDKVEKMQQALVQLQAACEKREQLEHRLRTRLERELESLRIQQRQGNCQPTNVSEYNAAALMELLREKEERILALEADMTKWEQKYLEENVMRHFALDAAATVAAQRDTTVISHSPNTSYDTALEARIQKEEEEILMANKRCLDMEGRIKTLHAQIIEKDAMIKVLQQRSRKEPSKTEQLSCMRPAKSLMSISNAGSGLLSHSSTLTGSPIMEEKRDDKSWKGSLGILLGGDYRAEYVPSTPSPVPPSTPLLSAHSKTGSRDCSTQTERGTESNKTAAVAPISVPAPVAAAATAAAITATAATITTTMVAAAPVAVAAAAAPAAAAAPSPATAAATAAAVSPAAAGQIPAAASVASAAAVAPSAAAAAAVQVAPAAPAPVPAPALVPVPAPAAAQASAPAQTQAPTSAPAVAPTPAPTPTPAVAQAEVPASPATGPGPHRLSIPSLTCNPDKTDGPVFHSNTLERKTPIQILGQEPDAEMVEYLI
partner: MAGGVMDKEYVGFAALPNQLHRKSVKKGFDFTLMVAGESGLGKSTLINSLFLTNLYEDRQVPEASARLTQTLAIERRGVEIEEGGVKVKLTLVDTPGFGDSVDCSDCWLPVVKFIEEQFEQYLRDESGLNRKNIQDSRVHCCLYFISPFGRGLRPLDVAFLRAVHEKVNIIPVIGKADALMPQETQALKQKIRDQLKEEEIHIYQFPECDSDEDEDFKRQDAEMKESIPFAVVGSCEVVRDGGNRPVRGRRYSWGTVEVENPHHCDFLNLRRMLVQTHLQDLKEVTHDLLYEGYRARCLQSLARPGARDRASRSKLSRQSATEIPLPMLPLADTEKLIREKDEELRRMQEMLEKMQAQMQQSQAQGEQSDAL
B3: Ubiquitin thioesterase OTUB2 (Homo sapiens), Q96DC9 (parent)
chain: MSETSFNLISEKCDILSILRDHPENRIYRRKIEELSKRFTAIRKTKGDGNCFYRALGYSYLESLLGKSREIFKFKERVLQTPNDLLAAGFEEHKFRNFFNAFYSVVELVEKDGSVSSLLKVFNDQSASDHIVQFLRLLTSAFIRNRADFFRHFIDEEMDIKDFCTHEVEPMATECDHIQITALSQALSIALQVEYVDEMDTALNHHVFPEAATPSVYLLYKTSHYNILYAADKH
partner: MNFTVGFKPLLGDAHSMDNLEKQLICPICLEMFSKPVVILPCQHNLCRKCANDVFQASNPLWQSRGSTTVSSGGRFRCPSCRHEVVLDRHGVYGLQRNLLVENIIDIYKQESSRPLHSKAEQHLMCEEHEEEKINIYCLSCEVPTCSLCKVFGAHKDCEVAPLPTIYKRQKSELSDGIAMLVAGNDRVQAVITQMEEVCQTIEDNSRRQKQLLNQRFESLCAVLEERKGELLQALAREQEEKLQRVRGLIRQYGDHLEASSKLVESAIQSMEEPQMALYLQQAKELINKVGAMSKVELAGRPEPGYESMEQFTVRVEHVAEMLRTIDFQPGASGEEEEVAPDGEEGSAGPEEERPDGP
B4: Keratin-associated protein 26-1 (Homo sapiens), Q6PEX3 (parent)
chain: MSCPNYCSGNSNSGSLRTSRHIPLTSIDLCPTSVSCGDVLYLPTSSQDHTWVTDNCQETCGEPTSCQPVHCETGNLETSCGSSTAYYVPRPCQGSSFLPASFFSSSCLPVSCRPQRYVSSGCRPLRPLLNSYQPIGDCVPNAYRPQFCLSKSCQPQNLLTSGCQPSSCLAYRPQSLHVVSSSLRPLGPLFSGCQPLTHVFSTCRPSCSGL
partner: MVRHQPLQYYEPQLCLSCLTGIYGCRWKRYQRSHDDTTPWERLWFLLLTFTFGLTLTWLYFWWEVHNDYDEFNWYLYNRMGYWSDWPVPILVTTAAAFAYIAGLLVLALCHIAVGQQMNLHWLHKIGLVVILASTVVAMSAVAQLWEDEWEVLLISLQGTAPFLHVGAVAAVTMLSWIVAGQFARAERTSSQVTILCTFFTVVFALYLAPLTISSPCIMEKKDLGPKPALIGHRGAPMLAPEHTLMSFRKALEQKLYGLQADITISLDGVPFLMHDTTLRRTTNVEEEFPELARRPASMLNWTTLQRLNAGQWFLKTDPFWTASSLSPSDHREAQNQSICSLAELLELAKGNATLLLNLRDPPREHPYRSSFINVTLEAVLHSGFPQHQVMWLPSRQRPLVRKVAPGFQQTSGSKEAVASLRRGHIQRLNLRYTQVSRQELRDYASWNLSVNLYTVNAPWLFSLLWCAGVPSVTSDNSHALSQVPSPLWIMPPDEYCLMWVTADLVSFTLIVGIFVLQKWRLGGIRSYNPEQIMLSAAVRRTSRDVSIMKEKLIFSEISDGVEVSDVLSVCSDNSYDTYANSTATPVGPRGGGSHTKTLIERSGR

Variants of: B1
Details: with goga2_human GOLGA2, Q08379

With E168D as the variant, how does the “effect of a mutation on the interaction” value read?
Its value is “with no effect”.

Variants of: B2
Details: with sept1_human SEPTIN1, Q8WYJ6

How did the “effect of a mutation on the interaction” value turn out when T899A was run?
The value was “with no effect”.

Variants of: B3
Details: with tri54_human TRIM54, Q9BYV2

How did the “effect of a mutation on the interaction” value turn out when V78I was run?
Its value is “with no effect”.

R146P was tested. Which “effect of a mutation on the interaction” value did it give?
The value was “disrupting interaction strength”.

Variants of: B4
Details: with gdpd5_human GDPD5, Q8WTR4

S26Y was tested. Which “effect of a mutation on the interaction” value did it give?
The value was “with no effect”.
